{
  "source": "patent US11572394B2",
  "about": "“Peptides for targeting LRP6-overexpressed cells” (PASTEUR INSTITUTE OF IRAN, priority 2020, dated 2023)",
  "molecules": {"B1": {"name": "DKK1: Dickkopf-related protein 1, natural inhibitor of the Wnt signaling pathway, antagonist ligand of LRP6, negative control (protein)", "chain": "TLNSVLNSNAIKNLPPPLGGAAGHPGSAVSAAPGILYPGGNKYQTIDNYQPYPCAEDEECGTDEYCASPTRGGDAGVQICLACRKRRKRCMRHAMCCPGNYCKNGICVSSDQNHFRGEIEETITESFGNDHSTLDGYSRRTTLSSKMYHTKGQEGSVCLRSSDCASGLCCARHFWSKICKPVLKEGQVCTKHRRKGSHGLEIFQRCYCGEGLSCRIQKDHHQASNSSRLHTCQRH"}, "B2": {"name": "Wnt3a: Wnt3a protein, positive control of the Wnt signaling pathway (protein, UniProt P56704 19-352, looked up)", "Protein Wnt-3a": "SYPIWWSLAVGPQYSSLGSQPILCASIPGLVPKQLRFCRNYVEIMPSVAEGIKIGIQECQHQFRGRRWNCTTVHDSLAIFGPVLDKATRESAFVHAIASAGVAFAVTRSCAEGTAAICGCSSRHQGSPGKGWKWGGCSEDIEFGGMVSREFADARENRPDARSAMNRHNNEAGRQAIASHMHLKCKCHGLSGSCEVKTCWWSQPDFRAIGDFLKDKYDSASEMVVEKHRESRGWVETLRPRYTYFKVPTERDLVYYEASPNFCEPNPETGSFGTRDRTCNVSSHGIDGCDLLCCGRGHNARAERRREKCRCVFHWCCYVSCQECTRVYDVHTCK"}},
  "type_in_all_cases": "cell-based, human",
  "key": {"[1]": {"test_system": "Wnt signaling pathway, HUVEC cell line", "assay": "Western blotting of LRP6 and β-catenin proteins with signal densitometry", "conditions": "Western blot", "procedure": "(§1) In this example, the effect of exemplary peptides on the expression of LRP6 and downstream genes of the Wnt signaling pathway, such as β-catenin, cyclin D1, and C-MYC, was evaluated at transcription level using real-time PCR and at translation level using Western blotting. The Gapdh gene was used as the reference gene. The expression fold change of more than 2 times (treated cell against untreated cell) was defined as increasing expression, and cases with a fold change of 0.5 to 2 were unchanged, and cases with expression fold change less than 0.5 were considered as a reduction in expression.\nAlso, the effect of exemplary peptides on the levels of LRP6 and β-catenin proteins in the β-catenin/Wnt signaling pathway was investigated by Western blotting. Also, each protein's relative expression was determined through signal densitometry of each Western blot band. FIG. 11A illustrates relative expression β-actin, β-catenin, and LRP6 in SW480, HCT116, and HUVEC cell lines, consistent with one or more exemplary embodiments of the present disclosure. Referring to FIG. 11A, the relative expressions of β-catenin and LRP6 in SW480 and HCT116 were higher than HUVEC as a normal cell."}, "[2]": {"test_system": "SW480", "assay": "Cell cycle analysis by flow cytometry (DNA content)", "conditions": "SW480, 24 hours", "procedure": "(§2) In this example, the effect of exemplary peptides on the cell cycle was determined through flow cytometry and measurement of DNA content in cells. In this experiment, HCT116, SW480, and HUVEC cell lines were cultured in 24-well plates and treated with 1 mM of each exemplary peptide for 24 hours.\n(§3) The cell proliferation index may be calculated by dividing the percentage of cells present in the S and G2 stages by the percentage of cells in the G1, S, and G2 stages. […] Also, the proliferation index in SW480 and HCT116 cell lines decreased after treatment with exemplary peptides (SEQ ID NOs: 1-4). On the other hand, the decrease in the proliferation index of HUVEC cells was smaller than that of SW480 and HCT116 cell lines."}, "[3]": {"test_system": "HCT116", "assay": "Cell cycle analysis by flow cytometry (DNA content)", "conditions": "HCT116, 24 hours", "procedure": "as §2, §3"}, "[4]": {"test_system": "HUVEC", "assay": "Cell cycle analysis by flow cytometry (DNA content)", "conditions": "24 hours", "procedure": "as §2, §3"}, "[5]": {"test_system": "Wnt signaling pathway, HCT116 cell line", "assay": "Western blotting of LRP6 and β-catenin proteins with signal densitometry", "conditions": "HCT116, Western blot", "procedure": "as §1\n(§4) Also, the effect of exemplary peptides on the levels of LRP6 and β-catenin proteins in the β-catenin/Wnt signaling pathway was investigated by Western blotting. Also, each protein's relative expression was determined through signal densitometry of each Western blot band."}, "[6]": {"test_system": "Wnt signaling pathway, SW480 cell line", "assay": "Western blotting of LRP6 and β-catenin proteins with signal densitometry", "conditions": "SW480, Western blot", "procedure": "as §1, §4"}, "[7]": {"test_system": "Wnt signaling pathway, HCT116 cell line", "assay": "Real-time PCR of LRP6 and downstream genes of the Wnt signaling pathway", "conditions": "treated against untreated", "procedure": "as §1"}, "[8]": {"test_system": "Wnt signaling pathway, SW480 cell line", "assay": "Real-time PCR of LRP6 and downstream genes of the Wnt signaling pathway", "conditions": "treated against untreated", "procedure": "as §1"}, "[9]": {"test_system": "Wnt signaling pathway, HUVEC cell line", "assay": "Real-time PCR of LRP6 and downstream genes of the Wnt signaling pathway", "conditions": "treated against untreated", "procedure": "as §1"}},
  "data": [
    {"molecule": "B1", "values": [
      {"measurement": "level of LRP6 protein", "setting": "[1]", "result": "did not alter"},
      {"measurement": "S and G2/M stage percentage", "setting": "[2]", "result": "decreased"},
      {"measurement": "percentage of cells in the G0/G1 stage", "setting": "[2]", "result": "increased"},
      {"measurement": "S and G2/M stage percentage", "setting": "[3]", "result": "decreased"},
      {"measurement": "percentage of cells in the G0/G1 stage", "setting": "[3]", "result": "increased"},
      {"measurement": "S and G2/M stage percentage", "setting": "[4]", "result": "decreased"},
      {"measurement": "percentage of cells in the G0/G1 stage", "setting": "[4]", "result": "increased"},
      {"measurement": "level of LRP6 protein", "setting": "[5]", "result": "did not alter"},
      {"measurement": "level of LRP6 protein", "setting": "[6]", "result": "did not alter"}
    ]},
    {"molecule": "B2", "values": [
      {"measurement": "expression of C-MYC gene", "setting": "[7]", "result": "increasing"},
      {"measurement": "expression of LRP6 gene", "setting": "[7]", "result": "increasing"},
      {"measurement": "expression of cyclin D1 gene", "setting": "[7]", "result": "increasing"},
      {"measurement": "expression of β-catenin gene", "setting": "[7]", "result": "increasing"},
      {"measurement": "expression of C-MYC gene", "setting": "[8]", "result": "increasing"},
      {"measurement": "expression of LRP6 gene", "setting": "[8]", "result": "increasing"},
      {"measurement": "expression of cyclin D1 gene", "setting": "[8]", "result": "increasing"},
      {"measurement": "expression of β-catenin gene", "setting": "[8]", "result": "increasing"},
      {"measurement": "expression of C-MYC gene", "setting": "[9]", "result": "did not change"},
      {"measurement": "expression of LRP6 gene", "setting": "[9]", "result": "did not change"},
      {"measurement": "expression of cyclin D1 gene", "setting": "[9]", "result": "did not change"},
      {"measurement": "expression of β-catenin gene", "setting": "[9]", "result": "did not change"},
      {"measurement": "S and G2/M stage percentage", "setting": "[2]", "result": "higher percentage"},
      {"measurement": "S and G2/M stage percentage", "setting": "[3]", "result": "higher percentage"},
      {"measurement": "S and G2/M stage percentage", "setting": "[4]", "result": "higher percentage"}
    ]}
  ]
}
